± gives the uncertainty stated by the source.

In the supplement of paper PMC12042874 one finds amyloid nucleation score data, which are given here for 58 substances.

The nature of the data set: amyloid nucleation score (Sup35N fusion, yeast selection) (log enrichment); library NNK2; higher = more nucleation; inactive = no reads after selection. In short, it runs like this: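 The nucleation score is a DiMSum log enrichment of output over input reads, centred on the mode score of non-aggregating sequences. Sequences under 100 input reads were excluded, and reads came from Illumina sequencing of plasmid inserts. Psi-negative yeast expressing Sup35N fused to peptides of 20 random codons were induced with 100 μM copper sulfate for 24 hours and grown 7 days at 30°C on medium lacking adenine and uracil. Random libraries had three technical output replicates.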
The substance LQLVMKCRVKCAFLPGGMAW returned an amyloid nucleation score of 5.246 ± 0.048.
To LQMLLHDQTEMFEYT belongs -0.112 ± 0.28; to LQSKAGEPLGRDMRLFLVPV, 0.698 ± 0.58.
To LQTAIVGSPRLVTFRIYIER belongs 7.197 ± 0.065; to LQVMEIYSLSIYYIYFLYIG, “inactive”; to LQVRLDTRR, 0.043 ± 0.5.
As for LQYAKSHRVSWDGMAANSPG, the amyloid nucleation score was found to be 0.067 ± 0.45.
To LQYINRGISRHVVKYSRSLS belongs -0.733 ± 0.41; to LRARTVVGEYCYSLYMQFVM, 0.213 ± 0.43; to LRCFRACQTRRAFEVLLLEF, -0.152 ± 1.
To LRCFSHRPCPKNNIVF belongs 0.602 ± 0.81.
To LRFNSNHPHFRGHLYSAVQR belongs 3.7 ± 0.15.
Substance LRFRATLSVLLYLWDTSRHV returned an amyloid nucleation score of 1.76 ± 0.26.
To LRFRKMAKKCNYVVRVVLGF belongs -0.273 ± 0.29.
To LRFRVLFVFPRDPW belongs -0.918 ± 0.78; to LRLFCDMYTISSNAVDFVKF, “inactive”; to LRLFYHVR, -0.641 ± 0.33.
To LRLGHVIPGVKNCREEND belongs -0.745 ± 0.3; to LRLSSGLKSVRTRRRM, 0.904 ± 0.37; to LRLVYISTMIQMPFGRRVF, 3.73 ± 0.04.
Consider LRPLVL, for which the amyloid nucleation score was -0.686 ± 1.1.
To LRQRY belongs -0.233 ± 0.64; to LRSVKMIRCLNSSLPLNGRG, 0.735 ± 0.12.
To LRSYWSGIGTTGPV belongs 4.57 ± 0.1; to LRTQSILYLRRMG, -0.164 ± 0.32; to LRVCNFCTFHFVWWS, 4.8 ± 0.06.
With LRVHESAGSNLVVWIKIVLE, the amyloid nucleation score came out at 3.42 ± 0.14.
To LRWVKKRTAAQN belongs -0.023 ± 0.63; to LRYLGWLACDYKTVGRSVTR, 0.978 ± 0.74; to LRYRDASEALSYLCMQYDVI, 2.94 ± 0.05.
As to LSDYLPISSWFSLCTEFLAT, the amyloid nucleation score is -1.02 ± 1.1.
Turning to LSEGCSLSTSVSMT, the amyloid nucleation score was -0.392 ± 0.44.
With LSFIFL, the amyloid nucleation score is 4.256 ± 0.031.
To LSFSNPWFMIKSRDMFVCIG belongs 0.792 ± 0.8.
Turning to LSGAPRLILRVNLWDTFDVQ, the amyloid nucleation score stood at 4 ± 0.046.
In the case of LSGVGFLDFRPLN, the amyloid nucleation score amounted to 0.734 ± 0.81.
To LSHLFSV belongs -0.381 ± 1.1; to LSHMLDLRGNNKSFWCYVEG, 0.89 ± 0.44.
To LSKPDLRTGSDDMS belongs -0.297 ± 0.79; to LSLYIGFYMKGGSCRC, 0.007 ± 0.79.
To LSNCNRMLAGQGGGSRSDWR belongs 0.907 ± 0.37; to LSNKRKVSSLLM, “inactive”.
Consider LSNLGTNYR, for which the amyloid nucleation score entry is “inactive”.
To LSQVSRFLSSTNLT belongs 0.579 ± 0.47.
To LSSGLLSLFALKQCF belongs -0.669 ± 0.54.
To LSSHPLGLGHTMGHRKF belongs 0.985 ± 0.48; to LSSTFLNFA, “inactive”.
Take LSWVRAIS: the amyloid nucleation score was found to be 0.2 ± 0.38.
To LSWYDLSVQWNLYNIVGRRV belongs 2.06 ± 0.078; to LTFNLLSTLTFVRVLVPPLA, 0.803 ± 0.34; to LTGCGDFSLLSIYFSRMHRG, 5.2 ± 0.078.
To LTGFLNGAGNN belongs 1.75 ± 0.12.
To LTGTMVMIVNPLDCVLGVER belongs 5.01 ± 0.085; to LTLAS, 0.49 ± 0.25.
As for LTNCRIVLSLNQARVRIESI, the amyloid nucleation score was 0.218 ± 0.8.
To LTNKLELNLGASIADSVGNN belongs -0.89 ± 0.49.
To LTPIPFYNPDNISYYNAFPS belongs “inactive”; to LTVLFLYLSLRCHSYNPAHA, -0.841 ± 1.1.
